Reference: the nanobody polyreactivity screen of Harvey et al. (2022)

Test: yeast display, Sf9 membrane polyspecificity reagent, FACS + sequencing; frameworks hold sequencing errors
How it was run: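 Polyreactivity labels are assigned by the sorting gate from which each nanobody was recovered. The gates were low and high (top ~1%), set on anti-HA fluorescence for expression and streptavidin fluorescence for reagent binding. Before sorting, galactose-induced (36–48 hours) yeast display cells were stained for 1 hour at 4 °C with 10% biotinylated, detergent-solubilized Sf9 membrane reagent.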

Row | Sequence | polyreactivity (PSR sort gate)
1 | QVQLVESGGGLVQAGGSLRLSCAASGIIFDDYALGWYRPAPGKVRELVAAINSNGGTTYYADSVKGRFTISRDNAKNTVYLQMNSLKPEDTAVYYCAARPYRIGRYGYDYDYWGQGTQVTVSS | high polyreactivity
2 | QVQLVESGGGLVQAGGSLRLSCAASGSIFVINAMGWYRQAPGKERELVAAISYSGTGTYYADSVKGRFTISRDNAKNTVYLQMNSLKAEDTAVYYCAADFYYRYRIYDYWGQGTQVTVSS | low polyreactivity
3 | QVQLVESAGGLVQAGGSLRLTCAASGNIFRRYAMGWYRQAPGKERELVAAISWRSGNTYYADSVKGRFTISRDNAKNTVYLQMNSLKPEDTAVYYCNKDYWWIPQLPHYNYWGQGTQVTVSS | low polyreactivity
4 | QVQLVESGGGLVQAGGSLRLSCAASGFIFSVYAMGWYRQAPGKEREFVAAIRWSGGSTYYADSVKGRFTISRDNAKNTVYLQMNSLKPEDTAVYYCAARARDLYGYWGQGTQVTVSS | high polyreactivity
5 | QVQLVESGGGLVQAGGSLRLSCAASGRNFWDYAMGWYRQAPGKERELVAGISYSGGSTSYADSVKGRFTISRDNAKNTVYLQMNSLKPEDTAVYYCAAGPSGTFFRDYDYWGQGTQVTVSS | low polyreactivity
6 | QFQLVESGGGFVQAGGSLRLSCAASGRIFGPYAMGWYRQAPGKERELVAAISFSGSGTYYADSVKGRFTISRDNAKNTVYLQMNSLKPEDTAVYYCAATSRKIVAYDHDYWGQGTQVTVSS | low polyreactivity
7 | QVQLVESGGGLVQAGGSLRLSCAASGSTFVYYAMGWYRQAPGKERELVATITSGGSTKYADSVKGRFTISRDNAKNTVYLQMNSLKPEDTAVYYCAAAYRVRGRTYDSWGQGTQVTVSS | high polyreactivity
8 | QVQLVESGGGLVQAGGSLRLSCAASGFSFWSNDMGWSRQAPGKEREFVAAITTSGGNTYYADSVKGRFTISRDNAKNTVYLQMQSLKPEDTAVYYCAAEEGSTDATGYDYWGEGTQVTVSS | low polyreactivity
9 | QVQLVESGGGLVQAGVSLRLSCAASVSIFSGNTMGWYRQAPGKERELVAAIRWRGGTYYADSVKGRFTISRDNAKNTVYLQMNSLKPEDPAVYYCATSVKPSYDYWGQGTQVTVSS | low polyreactivity
10 | QVQLHESGGGLVQAGGSLRLSCAASGTISVTYNMAWYRQAPGKEREFVAGNSTGATTNYADSVKGRFTISRDNAKNTVYLQMNSLKPEDTAVYYCAAHIYRQDHFYYWGQGTQVTVSS | low polyreactivity
11 | QVQLVESGGGLVQAGGSLRLSCAASGYIFWENAMGWYRQAPGKERELVAAITVSGGGTYYADSVKGRFTISRDNAKNTVYLQMNSLKPEDTAVYYCAADEDNPWLWFYYWGQGTQVTVSS | low polyreactivity
12 | QLLLQESVGGLVQAGGSLRLSCAASGSIFLFYTMGAYRQAPVKELEFVAGITLGTTTYNADSVKGRFTISRDNVKNTVYLQMNSLKPEDTAVYYCAVAVGHYTEFWYWGQGTQVTMSS | high polyreactivity
13 | QVQLVESGGGLVQAGGSHRLSCAASGGTFNTNAMGWYRQAPGKERELVATIRGGVITTYADSVKGRFTISRDNAKNTVYLQMNSLKPEDTAVYYFNKDNAPYAVSSIFGARDYWGQGTQVTVSS | low polyreactivity
14 | QVQLVESGGGLVQAGGSLRLSCAACGSIFIGNAMGWYRQAPGKERELVAVISKGGGRTYYADSVKGRFTISRDNAKNTVYLKMNSLKPEDTAVYFCNTRNPESGDYWGQGTQVTVSS | high polyreactivity
15 | QVQHVESGGGLVQAGGSLRLSCAASGSTYNGYAMGWYRQATGKERELVAAISTSGGSTYYADSVKGRFTISRDNAKNTVYLQMNSLKPEDTAVYYCATYYGKRYMRRVDYWGQGTQVTVSS | high polyreactivity
16 | QVHLVESGGGLVQAGGSLPLSCAATGRTFVYYAMGWYIQAPGKERELVAAITWTGGSTYYADSVKGRFTISRDTAKNTVYLHMNSMKPEDTAVYYFKAAVFRYRNEYDYWGQGTQVTVSS | low polyreactivity
17 | QVQLVESGGGLVQAGGSLRLSCAASGRTFNYYAMGWYRQAPGKERELVAAISSSGGRTYYADSVKGRFTISRDNAKNTVYLQMNSLKPEDTAVYYCAADSFYYRPEYDYWGQGTQVTVSS | low polyreactivity
18 | QVQLQESGGGLVQAGGSLRLSCAASGSIVVSVTMGWYRKAPGKESELVASIGRGSTTNHADSVKGRFTISRDNAKNIVDLLLNSLKPEDNAVYYCAALESYGKYHGYWGEGTQVTVSS | low polyreactivity
19 | QVQLVESGGGLVQAGGSLRLSCAASGLIFLDYAMGWYRQAPGKERELVAAISRSGGRTYYADSVKGRFTISRDNAKNTVYLQMNSLKPEDTAVYYCAADGSRKSEIYDYWGQGTQVTVSS | high polyreactivity
20 | QVQLVESGGGLVQAGGSLRLSCAASGRIFFVYAMGWYRQAPGKERELVAAITSSGGGTYYADSVKGRFTISRDNAKNTVYLQMNSLKPEDTAVYYCATRYPYRPGYEYWGQGTQVTVSS | low polyreactivity
21 | QVQLVESGGGLVQAGGSLRLTCAASGRTFGLNTMGWYRQAPGKERELVAAISRRGGSTYYADSVKGRFTISRDNAKNTVYLQMNSLKPEDTAVYYCARTSYNRYDYWGQGTQVTVSS | high polyreactivity
22 | QVQLVESGGGLVQAGGSLRLSCAASGRTFKKNAMGWYRQAPGKERELVAAITGSGGSTYYADSVKGRFTISRDNAKKTVYLQMNSLKPEDTAVYYCAAYAYGVWHSQDCGNYWGQGTQVTVSS | low polyreactivity

Row | Sequence | polyreactivity (PSR sort gate)
23 | QVQLVYSRRGLVQAGGSLRLSCAASGLIFAWYAIGWYRQATVNVRELVATISWNGDRTYYADSVKGRFTIARDNGKTSVYLQINSLQAEDTAVYYCAAYSVFRSYDYWGQGTQVTVSS | high polyreactivity
24 | QVQLVESGGGLVQAGGSLRLSCAASGGTFWLYTMGWYRQAPGKERELVAAITKSGGSTYYADSVKGRFTISRDNAKNTVYLQMNSLKPEDTAVYYCAARYSVYRDGYYWGQGTQVTVSS | high polyreactivity
25 | QVQLVESGGGLVQAGGRLRLSCAASGSIFYSNAMGWYRQAPGKERELVARITWSGGSTYYADSVKGRFTISRDNAKNTVYLQMNSLKPEDTAVYYCNKVIFRYFTTRPTRTYEYWGQGTQVTVSS | low polyreactivity
26 | QVQLQESGGGLVQVGGSQRLSCAASGNIFYNYAMGWYRHAQGKEREFDATINHGTSINYADSVKGRFTISRDNAKNTVYLQMNSLKPEDTAVYYCAADLSWTDNLFYWGQGTQVTVIS | low polyreactivity
27 | QVQLVESGGGLVQAGGSLRLSCAASGFTFRNYAMGWYRKAPGKERELVATIDRGTTSTYYADSVKGRFTISRDNAKNTVYLQMNSLKPEDTAVYYCAARAWRYGYGYWGQGTQVTVSS | high polyreactivity
28 | QVQLVESGGGLVQAGGSLRLSCAASRSIFTWYAMGWYIQEPGKERELVAAITRGGSTYADSVKWRFTISRDNAKYTVYLLMNSLKPEDTAVYDCNAFYGVYDFNYWGQGTHVTVSS | low polyreactivity
29 | QVQLVESGGGLVQAGGRLRLSCAASGRIFYGNAMGRYRPAPVKERELVATISSSGGSTTYADSVKGRFTISRDNAKYTVYLQMNSLKPEDSAVYYCADQGYWTGYDYWGQGSQVTVSS | high polyreactivity
30 | QVQLLESGGGLVQAGGSLRLSCAASGRTFTRNAMGWNRQAPGKERELVATIRYSTGTTYYADSVKGRFTISRDNAKNTVYLQMNSLKPEDTAVYYCAARVYRYRGYDSWGKGTQVTVSS | high polyreactivity
31 | QVQLVESGGGLVQAGGSLRVSCAASGYTFKHYTMGWYREAPGKERELVATISIRGGNTSYADSVKGRFTISRDTAKNTVYLQMNSLKPEDTAVYYCAARSVNAPPRYRQKAGYDYWGQGTQETVSS | high polyreactivity
32 | QVQLVESGGGLVQAGGSLRLSCAASGRIFIGNAMGWYRQAPGKERELVAAISKRGGSTYYADSVKGRFTISRDNAKNTVYLQMNSLKPVDTAVYYCAVDGYVGVADYEYDNWGQGTQVTVSS | low polyreactivity
33 | QVQLVESGGGLVQAGGSLRLSCAASGRIFFYNDMGCYRQAPGKERELVASISSGTSTYYADSVKGRFTISRDNAKNTVYLQMNSLKPEDTAVYYCATGRPWHYSSATYDYWGQGTQVTVSS | low polyreactivity
34 | QVQLVESGGGLVQAGGSLRLSCAASGYIFQYYAKGWYRQAPGKERELVAAITGGGSTKYADSVKGRFTISRDNAKHTVYLQMNSLKPEDTAVYYCAKRYPSWFNYWGQGTQVTVSS | high polyreactivity
35 | QVQLVESGGGLVQAGGSLRLSCAASGSIFYYNTMGWYRQAPGKERELVAAISRSGTSTFYADSVKGRFTISRDYAKNTVYLQMNSLKPEDTAVYYCNAESLGWYRLYTVDYWGQGTQVTVSS | low polyreactivity
36 | QVQLVESGGGLVQAGGSLRLSCAASGGILRQNTMGWYRQAPGKERELVAAISSSGGRTYYADSVKGRFTISRDNAKNTVYLQMNSLKPEDTAVYYCNVPAKRYPYYIRQSTVYPGNYWGQGTQVTVSS | high polyreactivity
37 | QVQLVESGGGLLQAGGSLSLSCAASGLILANYAMGWYRQAPGKERELVAAISSSGGSTYYADSVKGRFTISRDNAKNTVYLQMNSLKPEDTAVYYCAAYPLYRRRWTGDYWGQGTQVTVSS | high polyreactivity
38 | QDQLVESGGGLVQAGGSLRLSCAASGRIFDYNVMGWYRQAPGTEREFVADINGSGGGTNYADSVKGRFTISRDNAKNTVYFLMNSLKPEDTAVSYCNADSYEYHVPYYDYRYDYWGQGTQVTVSS | low polyreactivity
39 | QVQLVESGGGLVQAGGSLRLSCAASGSTFGYYAMGWYRQAPGKERELVAVIRRGGSTNYADSVKGRFTISRENAKNTVYLQMHSLKPEDTAVYYCAKSQRGTVYSYYYWGQGSQVTVSS | high polyreactivity
40 | QGQLVESGGGLVQAGGILRLRCAASGRMFQQYAMGWYRQAPGKERELVAVITYRAGRTHYADSVKGRFTISRDIAKNTVYLQMYRVKPDDTAVYYCAAGRYYAVWHSISGFDSWGQGTQETVSS | low polyreactivity
41 | QVQLVESGGGLVQAGGSLRLSCAASGNTFDIYTMGWYRPAPGKERELVATISSGGRTNYADSVKGRFTISRDNAKNTVYLQMNSLNPEDTAVYYCAKNLRYVWWYDHFRPYGYWGQGTQVTVSS | high polyreactivity
42 | QVQLVESGGGLVQPGGSLRISCAASASTFFPYAMGWYRQAPGKERELVAAITGSGGSTYYADSVKGRFTISRDNAKNTVYLQMNSLKPEDTAVYYCNAVWEYYGKSDYWGQGTQVTVSS | low polyreactivity
43 | QVQLVESGGGLVQAGGSLRLSCAASGSTFSYYAMGWYRQAPGKERELVADISSGGSTNYADSVKGRFTISRDNAKNTVYLQMNSLKPEDTAVYYCNRRYSYYDGFDYWGQGTQVTLSS | low polyreactivity
